We go through 16 molecules from patent publication US20090208447A1 (MEDIGENE, published 2009).

To fix the notation:
B1: SEQ ID NO 6 (receptor)
chain: MGHLPKPTLWAEPGSVITMGQPVTLRCQGGQETQEYRLYREKKTAPWITRIPQELVKKGQFPIPSITWEHAGRYRCYYGSDTAGRSESSDPLELVVTGAYIKPTLSAQPSPVVNSGGNVTLQCDSQVAFDGFILCKEGEDEHPQCLNSQPHARGSSRAIFSVGPVSPSRRWWYRCYAYDSNSPYEWSLPSDLLELLVL
B2: SEQ ID NO 24 (receptor)
chain: MGHLPKPTLWAEPGSVITQGSPVTLRCQGGQETQEYRLYREKKTAPWITRIPQELVKKGQFPIPSITWEHAGRYRCYYGSQGGLRSESSDPLELVVTGVYIKPTLSAQPSPVVNSGGNVTLQCDSQVAFDGFILCKEGEDEHPQCLNSQPHARGSSRAIFSVGPVSPSRRWWYRCYAYDSNSPYEWSLPSDLLELLVL
B3: SEQ ID NO 8 (receptor)
chain: MGHLPKPTLWAEPGSVITLMQPVTLRCQGGQETQEYRLYREKKTAPWITRIPQELVKKGQFPIPSITWEHAGRYRCYYGSDTAGRSESSDPLELVVTGAYIKPTLSAQPSPVVNSGGNVTLQCDSQVAFDGFILCKEGEDEHPQCLNSQPHARGSSRAIFSVGPVSPSRRWWYRCYAYDSNSPYEWSLPSDLLELLVL
B4: SEQ ID NO 31 (receptor)
chain: MGHLPKPTLWAEPGSVITMDQPVTLRCQGGQETQEYRLYREKKTAPWITRIPQELVKKGQFPIPSITWEHAGRYRCYYGSQGGLRSESSDPLELVVTGVYIKPTLSAQPSPVVNSGGNVTLQCDSQVAFDGFILCKEGEDEHPQCLNSQPHARGSSRAIFSVGPVSPGRRWWYRCYAYDSNSPYEWSLPSDLLELLVL
B5: SEQ ID NO 29 (receptor)
chain: MGHLPKPTLWAEPGSVITQGSPVTLRCQGGQETQEYRLYREKKTAPWITRIPQELVKKGQFPIPSITWEHAGRYRCYYGTQTAGRSESSDPLELVVTGAYIKPTLSAQPSPVVNSGGNVTLQCDSQVAFDGFILCKEGEDEHPQCLNSQPHARGSSRAIFSVGPVSPSRRWWYRCYAYDSNSPYEWSLPSDLLELLVL
B6: SEQ ID NO 27 (receptor)
chain: MGHLPKPTLWAEPGSVITQGSPVTLRCQGGQETQEYRLYREKKTAPWITRIPQELVKKGQFPIPSITWEHAGRYRCYYGSDTSQWSASSDPLELVVTGVYIKPTLSAQPSPVVNSGGNVTLQCDSQVAFDGFILCKEGEDEHPQCLNSQPHARGSSRAIFSVGPVSPSRRWWYRCYAYDSNSPYEWSLPSDLLELLVL
B7: SEQ ID NO 22 (receptor)
chain: MGHLPKPTLWAEPGSVITLSQPVTLRCQGGQETQEYRLYREKKTAPWITRIPQELVKKGQFPIPSITWEHAGRYRCYYGSDTAGRSESSDPLELVVTGVYIKPTLSAQPSPVVNSGGNVTLQCDSQVAFDGFILCKEGEDEHPQCLNSQPHARGSSRAIFSVGPVSPSRRWWYRCYAYDSNSPYEWSLPSDLLELLVL
B8: SEQ ID NO 28 (receptor)
chain: MGHLPKPTLWAEPGSVITQGSPVTLRCQGGQETQEYRLYREKKTAPWITRIPQELVKKGQFPIPSITWEHAGRYRCYYGSQGGLRSESSDPLELVVTGAYIKPTLSAQPSPVVNSGGNVTLQCDSQVAFDGFILCKEGEDEHPQCLNSQPHARGSSRAIFSVGPVSPSRRWWYRCYAYDSNSPYEWSLPSDLLELLVL
B9: SEQ ID NO 32 (receptor)
chain: MGHLPKPTLWAEPGSVITMDQPVTLRCQGGQETQEYRLYREKKTAPWITRIPQELVKKGQFPIPSITWEHAGRYRCYYGTQTAGRSESSDPLELVVTGVYIKPTLSAQPSPVVNSGGNVTLQCDSQVAFDGFILCKEGEDEHPQCLNSQPHARGSSRAIFSVGPVSPGRRWWYRCYAYDSNSPYEWSLPSDLLELLVL
B10: SEQ ID NO 21 (receptor)
chain: MGHLPKPTLWAEPGSVITLFQPVTLRCQGGQETQEYRLYREKKTAPWITRIPQELVKKGQFPIPSITWEHAGRYRCYYGSDTAGRSESSDPLELVVTGAYIKPTLSAQPSPVVNSGGNVTLQCDSQVAFDGFILCKEGEDEHPQCLNSQPHARGSSRAIFSVGPVSPSRRWWYRCYAYDSNSPYEWSLPSDLLELLVL
B11: SEQ ID NO 7 (receptor)
chain: MGHLPKPTLWAEPGSVITMDQPVTLRCQGGQETQEYRLYREKKTAPWITRIPQELVKKGQFPIPSITWEHAGRYRCYYGSDTAGRSESSDPLELVVTGVYIKPTLSAQPSPVVNSGGNVTLQCDSQVAFDGFILCKEGEDEHPQCLNSQPHARGSSRAIFSVGPVSPGRRWWYRCYAYDSNSPYEWSLPSDLLELLVL
B12: SEQ ID NO 25 (receptor)
chain: MGHLPKPTLWAEPGSVITQGSPVTLRCQGGQETQEYRLYREKKTAPWITRIPQELVKKGQFPIPSITWEHAGRYRCYYGTQTAGRSESSDPLELVVTGVYIKPTLSAQPSPVVNSGGNVTLQCDSQVAFDGFILCKEGEDEHPQCLNSQPHARGSSRAIFSVGPVSPSRRWWYRCYAYDSNSPYEWSLPSDLLELLVL
B13: SEQ ID NO 26 (receptor)
chain: MGHLPKPTLWAEPGSVITQGSPVTLRCQGGQETQEYRLYREKKTAPWITRIPQELVKKGQFPIPSITWEHAGRYRCMQYTLTAGRSESSDPLELVVTGVYIKPTLSAQPSPVVNSGGNVTLQCDSQVAFDGFILCKEGEDEHPQCLNSQPHARGSSRAIFSVGPVSPSRRWWYRCYAYDSNSPYEWSLPSDLLELLVL
B14: SEQ ID NO 9 (receptor)
chain: MGHLPKPTLWAEPGSVITMQRPVTLRCQGGQETQEYRLYRERKTAPWITRIPQELVKKGQFPIPSITWEHAGRYRCYYGSDTAGRSESSDPLELVVTGAYIKPTLSAQPSPVVNSGGNVTLQCDSQVAFDGFILCKEGEDEHPQCLSSQPHARGSSRAIFSVGPVSPSRRWWYRCYAYDSNSPYEWSLPSDLLELLVL
B15: SEQ ID NO 23 (receptor)
chain: MGHLPKPTLQAEPGSVITQGSPVTLRCQGGQETQEYRLYREKKTAPWITRIPQELVKKGQFPIPSITWEHAGRYRCVIQRGTAGRSESSDPLELVVTGVYIKPTLSAQPSPVVNSGGNVTLQCDSQVAFDGFILCKEGEDEHPQCLNSQPHARGSSRAIFSVGPVSPSRRWWYRCYAYDSNSPYEWSLPSDLLELLVL
B16: SEQ ID NO 30 (receptor)
chain: MGHLPKPTLWAEPGSVITQGSPVTLRCQGGQETQEYRLYREKKTAPWITRIPQELVKKGQFPIPSITWEHAGRYRCMQYTLTAGRSESSDPLELVVTGAYIKPTLSAQPSPVVNSGGNVTLQCDSQVAFDGFILCKEGEDEHPQCLNSQPHARGSSRAIFSVGPVSPSRRWWYRCYAYDSNSPYEWSLPSDLLELLVL

One may read the Kd as the equilibrium constant for the complex coming apart. A word on the koff: it is the first-order rate constant of dissociation. High values mean a short-lived complex, low ones a long-lived complex.

For the experiment, the target named is HLA-A*0201 loaded with the Carcinoembryonic antigen (CEA)-derived … peptide (biotinylated on the C-terminal biotinylation tag). Description: SPR (Biacore), Example 4. In general terms: Surface plasmon resonance follows binding to a sensor surface in real time, without labels.
B1 yielded a Kd of no more than 1000 nM and a koff of no more than 2 s⁻¹.
For B2, the Kd is no more than 1000 nM and the koff is no more than 2 s⁻¹.
The corresponding values for B3 are no more than 1000 nM and no more than 2 s⁻¹.
As to B4, the Kd was no more than 1000 nM and the koff is no more than 2 s⁻¹.
The corresponding values for B5 are no more than 1000 nM and no more than 2 s⁻¹.
In turn, B6 showed a Kd of no more than 1000 nM and a koff of no more than 2 s⁻¹.
For B7 the same measures were no more than 1000 nM and no more than 2 s⁻¹.
In turn, B8 came in with a Kd of no more than 1000 nM and a koff of no more than 2 s⁻¹.
In turn, B9 had a Kd of no more than 1000 nM and a koff of no more than 2 s⁻¹.
For B10 the same measures were no more than 1000 nM and no more than 2 s⁻¹.
The corresponding values for B11 are no more than 1000 nM and no more than 2 s⁻¹.
For B12 the same measures were no more than 1000 nM and no more than 2 s⁻¹.
B13: the Kd is no more than 1000 nM and the koff was no more than 2 s⁻¹.
The molecule B14 displayed a Kd of no more than 1000 nM and a koff of no more than 2 s⁻¹.
The corresponding values for B15 are no more than 1000 nM and no more than 2 s⁻¹.
The corresponding values for B16 are no more than 1000 nM and no more than 2 s⁻¹.
